# Assay results published in patent publication US20210292396A1.
# B1: ePGT121.18 (ePGT121.18.H1 VH and ePGT121.17.L1 VL) (antibody, V domains shown)
# VH: QMQLQESGPGLVKPGETLSLTCSVSGASISSSYWSWLRETPGKGLEWIGYTHHSGDTNYAPSLKSRVHLGLHPSKNQVSLSLTSVTAADTAVYYCARTLHGRRIYGVVAFNEYYTYFYWPTWGKGTQVTVSS
# VL: SDISVAPGETVRITCGGESIGSRAVQWYQHRPGQAPRLIIYNNQDRPPGIPERFSGSPDIDFGTTATLTISNVEAGDEATYYCHIWDSRRPTNWELGPGTTLTVL
# What was measured:
# Assay in all cases: cell-based or functional assay
# [1] = target: HIV Env of isolate TV1.29 (HIV)
# [2] = target: HIV Env of isolate 6644.v2.c33 (HIV)
# [3] = target: Env of HIV isolate X2278.C2.B6 (clade B) (HIV)
# [4] = target: Env of HIV isolate BJOX028000.10.3 (clade AE) (HIV)
# [5] = target: HIV Env of isolate 3817.v2.c59 (HIV)
# [6] = target: Env of HIV isolate T255-34 (clade AG) (HIV)
# [7] = target: Env of HIV isolate Q23.17 (clade A) (HIV)
# [8] = target: HIV Env of isolate 0077.v1.c16 (HIV)
# [9] = target: Env of HIV isolate BI369.9A (clade A) (HIV)
# [10] = target: Env of HIV isolate R1166.C1 (clade AE) (HIV)
# [11] = target: Env of HIV isolate 271-11 (clade AG) (HIV)
# [12] = target: HIV Env of isolate CNE30 (HIV)
# [13] = target: HIV Env of isolate CNE58 (HIV)
# [14] = target: Env of HIV isolate 7165.18 (clade B) (HIV)
# [15] = target: Env of HIV isolate 16936-2.21 (clade C) (HIV)
# [16] = target: HIV Env of isolate UG021.16 (HIV)
# [17] = target: Env of HIV isolate DU156.12 (clade C) (HIV)
# [18] = target: HIV Env of isolate CH117.4 (HIV)
# [19] = target: Env of HIV isolate C3347.c11 (clade AE) (HIV)
# [20] = target: HIV Env of isolate NKU3006.ec1 (HIV)
# [21] = target: HIV Env of isolate X2088.c9 (HIV)
# [22] = target: Env of HIV isolate X1254.c3 (clade G) (HIV)
# [23] = target: HIV Env of isolate CNE31 (HIV)
# [24] = target: Env of HIV isolate 0921.v2.c14 (clade C) (HIV)
# [25] = target: Env of HIV isolate C2101.c1 (clade AE) (HIV)
# [26] = target: Env of HIV isolate 3817.v2.c59 (clade CD) (HIV)
# [27] = target: Env of HIV isolate 0815.v3.c3 (clade ACD) (HIV)
# [28] = target: Env of HIV isolate X2131.C1.B5 (clade G) (HIV)
# [29] = target: Env of HIV isolate 235-47 (clade AG) (HIV)
# [30] = target: HIV Env of isolate 16936-2.21 (HIV)
# [31] = target: 208-member cross-clade virus panel
# [32] = target: HIV Env of isolate CNE40 (HIV)
# [33] = target: Env of HIV isolate 6785.v5.c14 (clade C) (HIV)
# [34] = target: Env of HIV isolate 3337.v2.c6 (clade CD) (HIV)
# [35] = target: Env of HIV isolate 3326.v4.c3 (clade CD) (HIV)
# [36] = target: Env of HIV isolate CAP256.206.C9 (clade C) (HIV)
# [37] = target: Env of HIV isolate 288.38 (clade C) (HIV)
# [38] = target: Env of HIV isolate 6471.v1.c16 (clade C) (HIV)
# [39] = target: Env of HIV isolate 269-12 (clade AG) (HIV)
# [40] = target: HIV Env of isolate DU172.17 (HIV)
# [41] = target: Env of HIV isolate SC422.8 (clade B) (HIV)
# [42] = target: Env of HIV isolate SF162.LS (clade B) (HIV)
# [43] = target: Env of HIV isolate 96ZM651.02 (clade C) (HIV)
binder,measurement,setting,value
B1,"IC80, pseudovirus neutralization (M1)",[1],5 ng/mL
same,"IC80, pseudovirus neutralization (M2)",[1],8 ng/mL
same,"IC80, pseudovirus neutralization (M1)",[2],5 ng/mL
same,"IC80, pseudovirus neutralization (M2)",[2],6 ng/mL
same,"IC50, pseudovirus neutralization",[3],1 ng/mL
same,"IC50, pseudovirus neutralization",[4],54 ng/mL
same,"IC80, pseudovirus neutralization (M1)",[5],2580 ng/mL
same,"IC80, pseudovirus neutralization (M2)",[5],6790 ng/mL
same,"IC50, pseudovirus neutralization",[6],16 ng/mL
same,"IC50, pseudovirus neutralization",[7],2 ng/mL
same,"IC80, pseudovirus neutralization (M1)",[8],> 50000 ng/mL
same,"IC80, pseudovirus neutralization (M2)",[8],> 50000 ng/mL
same,"IC50, pseudovirus neutralization",[9],1 ng/mL
same,"IC50, pseudovirus neutralization",[10],> 50000 ng/mL
same,"IC50, pseudovirus neutralization",[11],> 50000 ng/mL
same,"IC80, pseudovirus neutralization (M1)",[12],13 ng/mL
same,"IC80, pseudovirus neutralization (M2)",[12],16 ng/mL
same,"IC80, pseudovirus neutralization (M1)",[13],39 ng/mL
same,"IC80, pseudovirus neutralization (M2)",[13],33 ng/mL
same,"IC50, pseudovirus neutralization",[14],1 ng/mL
same,"IC50, pseudovirus neutralization",[15],2 ng/mL
same,"IC80, pseudovirus neutralization (M1)",[16],20 ng/mL
same,"IC80, pseudovirus neutralization (M2)",[16],19 ng/mL
same,"IC50, pseudovirus neutralization",[17],1 ng/mL
same,"IC80, pseudovirus neutralization (M1)",[18],> 50000 ng/mL
same,"IC80, pseudovirus neutralization (M2)",[18],> 50000 ng/mL
same,"IC50, pseudovirus neutralization",[19],> 50000 ng/mL
same,"IC80, pseudovirus neutralization (M1)",[20],> 50000 ng/mL
same,"IC80, pseudovirus neutralization (M2)",[20],> 50000 ng/mL
same,"IC80, pseudovirus neutralization (M1)",[21],5 ng/mL
same,"IC80, pseudovirus neutralization (M2)",[21],9 ng/mL
same,"IC50, pseudovirus neutralization",[22],2 ng/mL
same,"IC80, pseudovirus neutralization (M1)",[23],49 ng/mL
same,"IC80, pseudovirus neutralization (M2)",[23],78 ng/mL
same,"IC50, pseudovirus neutralization",[24],91 ng/mL
same,"IC50, pseudovirus neutralization",[25],> 50000 ng/mL
same,"IC50, pseudovirus neutralization",[26],546 ng/mL
same,"IC50, pseudovirus neutralization",[27],1 ng/mL
same,"IC50, pseudovirus neutralization",[28],0.9 ng/mL
same,"IC50, pseudovirus neutralization",[29],6 ng/mL
same,"IC80, pseudovirus neutralization (M1)",[30],3 ng/mL
same,"IC80, pseudovirus neutralization (M2)",[30],5 ng/mL
same,"% vs Neutralized, IC50 < 0.01 ug/ml",[31],56%
same,"% vs Neutralized, IC50 < 0.1 ug/ml",[31],66%
same,"% vs Neutralized, IC50 < 1.0 ug/ml",[31],71%
same,"% vs Neutralized, IC50 < 10 ug/ml",[31],76%
same,"% vs Neutralized, IC50 < 50 ug/ml",[31],78%
same,"% vs Neutralized, IC80 < 0.01 ug/ml (M1)",[31],43.8%
same,"% vs Neutralized, IC80 < 0.01 ug/ml (M2)",[31],38.5%
same,"% vs Neutralized, IC80 < 0.1 ug/ml (M1)",[31],60.6%
same,"% vs Neutralized, IC80 < 0.1 ug/ml (M2)",[31],59.6%
same,"% vs Neutralized, IC80 < 1.0 ug/ml (M1)",[31],65.9%
same,"% vs Neutralized, IC80 < 1.0 ug/ml (M2)",[31],65.9%
same,"% vs Neutralized, IC80 < 10 ug/ml (M1)",[31],70.7%
same,"% vs Neutralized, IC80 < 10 ug/ml (M2)",[31],69.7%
same,"% vs Neutralized, IC80 < 50 ug/ml (M1)",[31],73.1%
same,"% vs Neutralized, IC80 < 50 ug/ml (M2)",[31],72.6%
same,Geometric Mean (IC50),[31],8.1 ng/mL
same,Geometric Mean IC80 (M1),[31],17.7 ng/mL
same,Geometric Mean IC80 (M2),[31],20.2 ng/mL
same,Median IC50,[31],3 ng/mL
same,Median IC80 (M1),[31],7 ng/mL
same,Median IC80 (M2),[31],8 ng/mL
same,"Total VS Neutralized, IC50 < 0.01 ug/ml (viruses of 208)",[31],116
same,"Total VS Neutralized, IC50 < 0.1 ug/ml (viruses of 208)",[31],137
same,"Total VS Neutralized, IC50 < 1.0 ug/ml (viruses of 208)",[31],148
same,"Total VS Neutralized, IC50 < 10 ug/ml (viruses of 208)",[31],159
same,"Total VS Neutralized, IC50 < 50 ug/ml (viruses of 208)",[31],162
same,"Total VS Neutralized, IC80 < 0.01 ug/ml (M1) (viruses of 208)",[31],91
same,"Total VS Neutralized, IC80 < 0.01 ug/ml (M2) (viruses of 208)",[31],80
same,"Total VS Neutralized, IC80 < 0.1 ug/ml (M1) (viruses of 208)",[31],126
same,"Total VS Neutralized, IC80 < 0.1 ug/ml (M2) (viruses of 208)",[31],124
same,"Total VS Neutralized, IC80 < 1.0 ug/ml (M1) (viruses of 208)",[31],137
same,"Total VS Neutralized, IC80 < 1.0 ug/ml (M2) (viruses of 208)",[31],137
same,"Total VS Neutralized, IC80 < 10 ug/ml (M1) (viruses of 208)",[31],147
same,"Total VS Neutralized, IC80 < 10 ug/ml (M2) (viruses of 208)",[31],145
same,"Total VS Neutralized, IC80 < 50 ug/ml (M1) (viruses of 208)",[31],152
same,"Total VS Neutralized, IC80 < 50 ug/ml (M2) (viruses of 208)",[31],151
same,"IC80, pseudovirus neutralization (M1)",[32],47 ng/mL
same,"IC80, pseudovirus neutralization (M2)",[32],47 ng/mL
same,"IC50, pseudovirus neutralization",[33],2 ng/mL
same,"IC50, pseudovirus neutralization",[34],232 ng/mL
same,"IC50, pseudovirus neutralization",[35],306 ng/mL
same,"IC50, pseudovirus neutralization",[36],1 ng/mL
same,"IC50, pseudovirus neutralization",[37],0.8 ng/mL
same,"IC50, pseudovirus neutralization",[38],378 ng/mL
same,"IC50, pseudovirus neutralization",[39],3 ng/mL
same,"IC80, pseudovirus neutralization (M1)",[40],5 ng/mL
same,"IC80, pseudovirus neutralization (M2)",[40],5 ng/mL
same,"IC50, pseudovirus neutralization",[41],5 ng/mL
same,"IC50, pseudovirus neutralization",[42],2 ng/mL
same,"IC50, pseudovirus neutralization",[43],0.7 ng/mL
